Consider 36 sequences from the supplement of paper PMC10567573.

± gives the standard deviation.

The nature of the series: protein stability index of a GFP-peptide fusion (GPS, HEK-293T) (PSI 1-6); higher = more stable. The settings on record: c terminus: a fixed tail appended.
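Further: 24-mer peptide tiles fused after GFP, lentivirally expressed, FACS-sorted into six equal bins by GFP/DsRed ratio, decoded by Illumina sequencing, PSI is the read-weighted mean bin number.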

Regarding APFPPPPAADGARAPRSPGQVTPR [C6orf223], the protein stability index by setting is: (treatment: DMSO) 5.14 ± 0.54; (treatment: MLN4924 1 uM, 8 h) 5.25 ± 0.11.
For APRVRTAFTMEQVRTLEGVFQHHQ [VENTX], in that order: 3.33 ± 0.22 and 3.26 ± 0.22.
In the same order, the values of APSCAIMISTYEFGKSFFQRLNQD [SLC25A39] are 2.47 ± 0.86 and 2.06 ± 0.33.
For AQAIDFINRCSVLRQLGCKDGKNW [SPOPL], in that order: 2.29 ± 0.24 and 2.58 ± 0.42.
Consider AQGRAGAPVPEPPKEEQQQALEQF [EPB41L3], for which the protein stability index was 5.62 ± 0.27 (treatment: DMSO) and 5.34 ± 0.3 (treatment: MLN4924 1 uM, 8 h).
Take AQHKDRSTQLEMQLEKPKPVKPVT [MNAT1]: the protein stability index by setting is: (treatment: DMSO) 4.71 ± 0.24; (treatment: MLN4924 1 uM, 8 h) 4.82 ± 0.36.
Take AQLELYQLQVESNSSQLLLRRHAG [SCARA5]: the protein stability index runs as follows: (treatment: DMSO) 2.71 ± 0.26; (treatment: MLN4924 1 uM, 8 h) 2.9 ± 0.25.
On to AQMAKAAAEERALFTDRMATRSTT [WEE1], for which the protein stability index (treatment: DMSO) turned out to be 4.8 ± 0.21 and the protein stability index (treatment: MLN4924 1 uM, 8 h) was 4.87 ± 0.25.
For AQRPGITHGVGLVLRVEQQPHLPL [SCNN1D], in that order: 2.59 ± 0.17 and 2.85 ± 0.15.
On to AQYDSWPHYPEYFQQPAPEYHQPQ [LOXL2], for which the protein stability index stood at 3.62 ± 0.48 (treatment: DMSO) and 3.8 ± 0.49 (treatment: MLN4924 1 uM, 8 h).
ARGSIVATYIFIFIGETLLSMNWA [SPNS1] registered a protein stability index (treatment: DMSO) of 3.4 ± 0.55 and a protein stability index (treatment: MLN4924 1 uM, 8 h) of 2.88 ± 0.55.
For ARIVEIYSRRLQVQERLTKQIAVA [GCH1], in that order: 2.33 ± 0.37 and 2.37 ± 0.2.
Regarding ASLAAAKKQLADETLLKVDLENRC [LMNB1], the protein stability index is, setting by setting: (treatment: DMSO) 4.35 ± 0.12; (treatment: MLN4924 1 uM, 8 h) 4.46 ± 0.24.
Take ASMSPDATKPSHWCSVAYWEHRTR [SMAD6]: the protein stability index reads like this: (treatment: DMSO) 2.84 ± 0.24; (treatment: MLN4924 1 uM, 8 h) 2.87 ± 0.27.
ASPSSSVRLGSFRSPRAGAGALLR [PRPH] gave a protein stability index (treatment: DMSO) of 3.65 ± 0.26 and a protein stability index (treatment: MLN4924 1 uM, 8 h) of 3.81 ± 0.19.
For ATNDDPWGPSGQLMGEIAKATFMY [CLINT1], in that order: 2.34 ± 0.38 and 2.32 ± 0.27.
For AVLGLLLVLAAVVAWCYYSVSLRK [MYORG], in that order: 2.69 ± 0.52 and 2.77 ± 0.78.
With AVPPTSSVPPVAGAPSVGQPGAGF [SNAP91], the protein stability index stood at 4.53 ± 0.23 (treatment: DMSO) and 4.42 ± 0.086 (treatment: MLN4924 1 uM, 8 h).
Take AVVRLNKKIYEAKRFTDAGFEHYD [CDC14A]: the protein stability index reads like this: (treatment: DMSO) 2.54 ± 0.38; (treatment: MLN4924 1 uM, 8 h) 2.52 ± 0.25.
On to AWFFSKTEELNKEVASNTEMIQTS [KRT15], for which the protein stability index reads like this: (treatment: DMSO) 3.83 ± 0.18; (treatment: MLN4924 1 uM, 8 h) 3.84 ± 0.081.
For AWGFPENATAPRSPSHSPEHRRTA [ELOA2], in that order: 5 ± 0.15 and 4.87 ± 0.16.
In the same order, the values of AWNIPMSNPGVDFGDVSERLALRQ [GALNT9] are 3.68 ± 0.27 and 3.91 ± 0.26.
As for CADVLFILQDQEHIFAHRIYLATS [RHOBTB1], the protein stability index runs as follows: (treatment: DMSO) 2.93 ± 0.44; (treatment: MLN4924 1 uM, 8 h) 2.89 ± 0.48.
Take CCVKTELLGEETPMAADEGSAEKQ [EHMT1]: the protein stability index by setting is: (treatment: DMSO) 5.45 ± 0.22; (treatment: MLN4924 1 uM, 8 h) 5.47 ± 0.12.
For CDPGMTAFEPEALGNLVEGLDFHR [CAMK2A], in that order: 4.17 ± 0.096 and 4.2 ± 0.19.
For CELAQDKEAAEAIEAEGATAPLTE [CTNNB1], the protein stability index reads like this: (treatment: DMSO) 5.49 ± 0.41; (treatment: MLN4924 1 uM, 8 h) 5.53 ± 0.23.
For the sequence CGDVHGQFHDLMELFRIGGKSPDT [PPP2CA], the protein stability index (treatment: DMSO) came out at 2.69 ± 0.34 and the protein stability index (treatment: MLN4924 1 uM, 8 h) is 2.84 ± 0.15.
For CGWPRGKDAPCYESDTDIYETVAA [DRICH1], the protein stability index by setting is: (treatment: DMSO) 3.18 ± 0.23; (treatment: MLN4924 1 uM, 8 h) 3.31 ± 0.27.
In the same order, the values of CHLAHELRLSCMERKKVQIRSMDP [DCAF4] are 2.39 ± 0.25 and 2.42 ± 0.2.
For CHLNGIVHRDLKPENLLLASKSKG [CAMK2D], in that order: 3.52 ± 0.36 and 3.56 ± 0.19.
For CICGFTHDDGYMICCDKCSVWQHI [KMT2E], the protein stability index reads like this: (treatment: DMSO) 3.19 ± 0.39; (treatment: MLN4924 1 uM, 8 h) 3.29 ± 0.41.
For CIFDKFECVWNGSDSVIMTGSYNN [PPP2R2B], in that order: 2.27 ± 0.34 and 2.21 ± 0.14.
For CIVSPDRPGVQDAALIEAIQDRLS [VDR], in that order: 3.55 ± 0.14 and 3.65 ± 0.25.
For CLESTKLLADLKKCGDLECEALIN [MIA2], in that order: 3 ± 0.32 and 3.25 ± 0.14.
As for CLGLSYDGLLGDNQIMPKAGLLII [MAGEA3], the protein stability index stood at 3.12 ± 0.68 (treatment: DMSO) and 2.73 ± 0.61 (treatment: MLN4924 1 uM, 8 h).
For CPIIRIPNRFLRGHRPPPARSGHR [KLHDC10], in that order: 2.68 ± 0.69 and 3.32 ± 0.85.
